Source: article PMC2783839

Target: T1, NEUROG2 (cNEUROG2) (Gallus gallus (chick)?, UniProt Q9YH82 1-213)
T1 sequence: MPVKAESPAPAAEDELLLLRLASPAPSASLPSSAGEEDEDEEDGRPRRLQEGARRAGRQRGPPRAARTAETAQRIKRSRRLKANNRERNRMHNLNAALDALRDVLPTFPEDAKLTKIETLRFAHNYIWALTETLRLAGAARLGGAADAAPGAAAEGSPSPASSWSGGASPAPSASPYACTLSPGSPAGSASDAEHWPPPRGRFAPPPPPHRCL
Assay: EMSA

B1: (Ebox)3 (dsDNA)
DNA 1: GATCCAGGCAGGTGGCAGGCAGGTGGCAGGCAGGTGGCAGATC
DNA 2: GATCTGCCACCTGCCTGCCACCTGCCTGCCACCTGCCTGGATC
binding result: no binding
